Laboratory results from article PMC4592070.

Biological target: ErbB1-mCitrine (UniProt P00533)
Test: FRET or BRET; confocal time-domain FLIM-FRET in live COS-7 cells at 37°C; donor ErbB1-mCitrine, acceptor an mCherry-labeled PTP1B chimera; cells starved overnight, recorded 2 min before and 14 min after EGF (100 ng/mL)

Row | Substance | average donor fluorescence lifetime (donor-only control 3.02 ns) [ns]
1 | mCherry-PTP1B^D/A-ER (enzyme) | 2.89
2 | mCherry-PTP1B^D/A-OMM (enzyme) | 2.96
